From article PMC5535893 come the findings set out here.

Assay [1] concerns the target mouse CD3εγ-chains (mouse (endogenous in C57BL/6 spleen T cells)) (UniProt P22646).
Assay [2] shares this target. Briefly: flow cytometry on cells; fixed CD8+ T cells (1 x 10^6/mL) incubated with or without ArtinM (25 µg/mL) for 40 min at 4 °C, then with 145-2C11-PE or 17A2-FITC (10 µg/mL) for 40 min at 4 °C; percentage of cells labelled with anti-CD3 antibody. (In general: In flow cytometry, cells or beads pass a laser one at a time.)

Sequence of UniProt P22646 (P22646 22-189, chain 1 of 2): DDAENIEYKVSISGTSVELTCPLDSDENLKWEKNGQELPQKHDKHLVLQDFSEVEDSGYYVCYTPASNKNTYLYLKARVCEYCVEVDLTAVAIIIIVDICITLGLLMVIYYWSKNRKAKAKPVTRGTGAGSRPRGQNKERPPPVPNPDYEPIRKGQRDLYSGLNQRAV
Sequence of UniProt P22646 (P11942 23-182, chain 2 of 2, further chain): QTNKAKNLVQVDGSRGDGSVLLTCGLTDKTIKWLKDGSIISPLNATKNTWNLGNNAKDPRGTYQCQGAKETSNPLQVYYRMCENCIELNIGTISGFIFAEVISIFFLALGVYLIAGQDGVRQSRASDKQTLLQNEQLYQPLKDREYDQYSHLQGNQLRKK

“ArtinM, D-mannose-binding lectin from Artocarpus heterophyllus (natural protein)”: in assay [1], the inhibition of the ArtinM-induced (1.25 µg/mL, 48 h) IL-2 release by CD8+ T cells after treatment with the anti-CD3εγ-chains antibody 17A2 (8 µg/mL), against an IgG isotype control; ELISA stood at 70%. Moreover, the fold decrease in the frequency of CD8+ T cells labelled by the anti-CD3εγ antibody 17A2 after pre-incubation with ArtinM in assay [2] amounted to 3.5 fold.
